Here are results for 1 substance from patent publication US20040171019A1, “PIN1 peptidyl-prolyl isomerase polypeptides, their crystal structures, and use thereof for drug design” (Agouron Pharmaceuticals, Inc., priority 2002, published 2004).

In this experiment the target is 6His-PPIase domain of PIN1 (human) (UniProt Q13526). Description: fluorescence polarization competition; free Pintide displaces fluorescein-tagged Pintide from the 6His-PPIase domain of PIN1.

In turn, “Pintide (WFYpSPFLE) without the fluorescein tag (peptide)” registered a half-inhibitory concentration (IC50) of 7 to 10 µM.
